Test results reported in the DeepSol protein solubility set.

Experiment: soluble on expression in E. coli; label from the status in PepcDB or PDB records

Row | Sequence | soluble on expression in E. coli
1 | MAHHHHHHMDYAAAIKQQAEDLQDELKDLALWQEEVARQHEVNKMKKSATFVTNSVPPIRGTVPSLKEAVLKSAGVVEKEDPVKKQKDKGNELFQSGKLQEAVEAYAVGIDLDPEGPMAHVLYGNRALCYLKLERWSDAERDASSCVRLNRTYAKGYFRRATARKQLGNLKGARTDLEAVLALSPNDVSATNEMSLVTKMIRADRDGAEPVTRKKIVITEVDDDDDEQCVGEGAQDKTASPSVIESNTGRHPNTVGDQVVKNEIAELERFRAAQRDAQEARSRERETKLQYKGRTSSRVEIVEEINNESKEGVVVSSSPLSLNNGVTSASAQECPSRELAAVSTSGAAQRPATFKDKKMNEPVVPRMLKPTVKWTKDTLKAPKSFTEFERVFLDLKDDEELLCFYVSVIPPGSMQVLFGSNMTPDILLGMLKAAGRLSGTSTVSFLKGLCTVKRVRDISLFFDDCEKKVVEEVMDVVVSCGASDEDVSLFRRQLGVI | soluble
2 | DYMRFALKGKQGKGMKMPEGVVSSNGEYYMKERMVTDPGLTLDNSGIAPQPSRRAKEDDGGAAEGGRQAADDEVRQDMQETPVLPSNTGSKQQQLDSLF | not soluble
3 | MGSDKIHHHHHHMQLPSLQSATLIRRYKRFLADVQLPSGDITTLHCANTGAMIGCGSQGDTLWYSTSDSATRKYPSSWELTQLANGHLVCINTHRSNQLTFDALQKKQIIELAMYDKIYPEVKYGEENSRIDFLLKGKDLPDCYVEVKSITYVDNDKKLGMFPDAVTTRGQKHLRELISMKKQGHRAVIFFCGLHDGFDHFQIAKHIDARYDELLHQALKEGVEAYAYAAEFEKTQGIPTALNLTKVAPFKAG | not soluble
4 | MGSDKIHHHHHHMQLAQARNDNGERFVLVIEDDPTQARRLDDVNSVHALALTALDRKVGLAALIKEWPGDARVDAVALADKGQLLAPLDHPDPAHLLVTGTGLTHLGSAEGRDKMHRQMNEADQSDQPLTDSMKMFRKGLEGGKPAPGDFGVQPEWFYKGDGGIVMAPGEALRMPHFALDGGEEPEVAGLYLIDNDGVPRRIGYALGNEFSDHVTERENYLYLAHSKLRACSFGPTLLIDELPDDVQGTSRIRRGDEVLWEKPFISGEANMCHTLANLEAHHFKYAQFCRPGDVHVHFFGTATLSFSDGIIPQPGDVFEIDAKPFALPLRNPLSKDAVAPAPSVKPL | not soluble
5 | MGSDKIHHHHHHMNFGYWYYREYFNTIKLNSEGIVTNFSTFNKGKNDKLIKGATLPPCDKENDIKDVTGFELKTCYPGLLCGVGYHHEINKPADEKGKKVEGDKEDDAPEVYNLGMYFDYTSGLPVIPGSSIKGMLRSAIEEWDFLADYELNNGVTREEIIEKVFVGKEYSIYDRDIFLDAIPIRVDNTLFGEDYITHHPNPLQNPNPVRFLRVEPGVTYQFRFILKDHGEKLTVDFRTKLFKAIICTFGLGAKTNVGYGQFVEP | not soluble
6 | MGSDKIHHHHHHMCPLMAENHEVIEEGNSSELPLSAEDAKKLTELAENVLQGWDVQAEKIDVIQGNQMALVWKVHTDSGAVCLKRIHRPEKKALFSIFAQDYLAKKGMNVPGILPNKKGSLYSKHGSFLFVVYDWIEGRPFELTVKQDLEFIMKGLADFHTASVGYQPPNGVPIFTKLGRWPNHYTKRCKQMETWKLMAEAEAAAPFSQLYLQEIDGFIEDGLRIKDRLLQSTYVPWTEQLKKSPNLCHQDYGTGNTLLGENEQIWVIDLDTVSFDLPIRDLRKMIIPLLDTTGVWDDETFNVMLNAYESRAPLTEEQKQVMFIDMLFPYELYDVIREKYVRKSALPKEELESAFEYERIKANALRQLI | not soluble
7 | MAHHHHHHMVLTLDCSQAVQNTIRELQDTRAFTDDDGAETIATTWFSDVGLCITGYTRDLVAAINSQGTPSVVVVIQNLHTFADRQRQKVLKIHQRYFNSVLSDTTKVVPVVSQDDYTKILRHMQVSKIRTLKWRDQHPYMAVEEKAYNPETQELTITGHLRGMPLSATQLVHLTNHGTFQVCKIEEVRKGDERVLIETSEAAQRESLQQVQANSTLEDDGFPTDADVLYHQEIAGTHKIRVPAGVSSDQAAWYDTEENIVKDSAPKHQHITMDDEDAFAGDAMSYRTTQTDVDFLKAEDVVRLERMTDEERILEMEKLKELSEEETWNPDMVDTPVNIPARQRFAKYRGMRSFHTGRWDPAENLPPQYAYIYKLQGYSRIRESAIDACEGGMAEVGMCIAITLVNVPQSVWNACERCLLIASGQLQHEQKWSVLHFQVQRASELDEPIKSKTPMLAHIGFRKFYVSPLFSDISSGDRSKFARFFHEGDRFRMATFFGPISYNPCPLLLFQVPSLEEQAEGNPLRLACFGGSLPPNPETLLLKRAVLSGRVAVIHKKQVVVKYMFFNDEDIKWFQPVDLYTKFGRRGKITKPVGTHGLFKAVLNDQIMQHDVVCMDLFKRVFPKWTTVAFSMSDVPAGHTENEEER | not soluble
8 | MGSDKIHHHHHHVEFIVGGATGEFYFLEMNTRLQVEHPVTEMITGLDLVEQMIRVAYGEKLKITQDDVKLQGWSMEARVYAEDPFRNFLPSTGRLTRYQPPAESQHVRVDTGVYEGGEISMFYDPMIAKLITYGPTRETAIAHMRQALDEYHIRGLSHNIPFLASLFSKERFVKGNLTTNFIAEEYPNGFTSSDLPSDDPTTLIAVAAAMKRRIVERNIQISGQFPGHEMKAPTEWTVLIGGTYHEVDVHPAPGGYAVVVEGEAVEVKTDWQIGDPLIRAKVDDRMVCVQVDRTGVSFRLSHSGVQAEVWVLTRPTAKLHKLMPFKAPPDMSKYLLSPMPGLLAKLLVEEGQEVKAGEPLAVVEAMKMENILKAERDAKIAKVHAKSGDSLAVDQKIIEFAS | not soluble
9 | MGSDKIHHHHHHMYHDVSYLLSRLINGPLSLRQIYFASSNGPVPDLAYQVDFPRLEIVLEGEFVDTGAGATLVPGDVLYVPAGGWNFPQWQAPATTFSVLFGKQQLGFSVVQWDGKQYQNLAKQHVARRGPRIGSFLLQTLNEMQMQPQEQQTARLIVASLLSHCRDLLGSQIQTASRSQALFEAIRDYIDERYASALTRESVAQAFYISPNYLSHLFQKTGAIGFNEYLNHTRLEHAKTLLKGYDLKVKEVAHACGFVDSNYFCRLFRKNTERSPSEYRRQYHSQLTEKPTTPE | not soluble
10 | MKNLAIFDLDNTLINTDSDHAWPQYLIKKGLVDAAETEAQNEKFYRDYQNGCLDIDAFLKLHLAPLARYSKEELAEFHREFMAEYIIPHISPMQRMLVQSHQMAGDETLVISSTNEFIITPVCRLFGIANMIGTQLETGPDGRYTGNYIGTPSLKEGKITRLNQWLAERGETLESYGKTYFYSDSKNDLPLLRLVSEPVAVNPDAELEKEAKEKGWPVLNFK | not soluble
11 | MDQTIHHQIQQALHFRTAVRVYKEEKISDEDLALILDAAWLSPSSIGLEGWRFVVLDNKPIKEEIKPFAWGAQYQLETASHFILLIAEKHARYDSPAIKNSLLRRGIKEGDGLNSRLKLYESFQKEDMDMADNPRALFDWTAKQTYIALGNMMMTAALLGIDTCPIEGFHYDKVNHILAKHNVIDLEKEGIASMLSLGYRLRDPKHAQVRKPKEEVISVVK | soluble
12 | MSLKYGGIIMKEILVIAPTKGTYEKSIHIVKKNKYKTIDVVFGNLKEGIPLAEKSINHGTRIIISRGGTYNMLKATYNIPIVEIKVDAYDIIKSYKEVKNSNEPFGIIGFNNVIYGFDIIEEILNKKITMIEIEKEEEIYDAIEKYRKKGINTYIGDTTVAHIVKRLNCKGILIESREENILRAIQQAEQILEATKDEQKRRLQIEAMTDFVHDGIITVDKNFKITLFNKSAEKIFGIKKENALYHNVVDVIPNTVLPQVVETMEPQIGEIQNIGSTKIITNRVPIIVDGQIQGAVSTFQDSKEISSFEHTIRRSLLSKGLSAEGHHHHHH | soluble
13 | MAHHHHHHMPPQQPVGIMDNEEEFPVEEPPPMDPLIKLLHLRHTYTSQYVDEAVREEVKAAMLKIAHEHNMAPYLRFASEMFCWTVDEEQLRAMDAINATKLEELDARIKDAQENLGDVEVRDGLLARCHHFARIGDMEECLKFNNECSGKTLAAGSKLDLCFQRILLGLAFSDNEVAANGICSAHRLMKEGDWERRNRLKVYEGLFYVYIRDFKKGSELLLDSISTFAASELMDFNEFILVTVVASLPVLSRSQLKKCILDSPEVHSANIKNVFHLVTAIYECRYKEVFPTLDAVCQQLRGIVYLSQHVNYFFREVRVLVFKQFLDSYSSVTLKSMSNAFGIPSPVLDSMLGTLISNERIACKMDRVSDSITTYRGDTTNLDYHRIVKNGDLLLNRIQKLSRLAEV | not soluble
14 | MQSVELPETHQMLLQTCRDFAEKELFPIAAQVDKEHLFPAAQVKKMGGLGLLAMDVPEELGGAGLDYLAYAIAMEEISRGCASTGVIMSVNNSLYLGPILKFGSKEQKQAWVTPFTSGDKIGCFALSEPGNGSDAGAASTTARAEGDSWVLNGTKAWITNAWEASAAVVFASTDRALQNKSISAFLVPMPTPGLTLGKKEDKLGIRGSSTANLIFEDCRIPKDSILGEPGMGFKIAMQTLDMGRIGIASQALGIAQTALDCAVNYAENRMAFGAPLTKLQVIQFKLADMALALESARLLTWRAAMLKDNKKPFIKEAAMAKLAASEAATAISHQAIQILGGMGYVTEMPAERHYRDARITEIYEGTSEIQRLVIAGHLLRSYRSAENLYFQ | soluble
15 | MAHHHHHHMALLEWARQDATMKSSLELYCGPASKDLMIMDIPANVAVDAYLWEGLLVAESMLEADGTLLVVSPHAFSVRVRRFLQWRFLRAQCAVSEAGAVHYAVCSTVAAGFGDAAVRRDDFPGQLATGKRRPCKWNPYRRPEKRKFVASLRPWFTNAPFVKDALRCSLERERDAQERLRDADDAFFAVAHEMVEKGVHYSHPND | not soluble
16 | SLQPYEKYLKLNSQKLRADQTDTERKLWQRINRDQLLGFRFNRQKPLLSYIVDFYCAKTKLIIELDGSQHYKPDYQEKDALRDAELNSLGFTVMRFSNDEVMREIEAVVEQIYLFLENVRTD | not soluble
17 | SRAYDLVVIGAGSGGLEAGWNAASLHKKRVAVIDLQKHHGPPHYAALGGTCVNVGCVPKKLMVTGANYMDTIRESAGFGWELDRESVRPNWKALIAAKNKAVSGINDSYEGMFADTEGLTFHQGFGALQDNHTVLVRESADPNSAVLETLDTEYILLATGSWPQHLGIEGDDLCITSNEAFYLDEAPKRALCVGGGYISIEFAGIFNAYKARGGQVDLAYRGDMILRGFDSELRKQLTEQLRANGINVRTHENPAKVTKNADGTRHVVFESGAEADYDVVMLAIGRVPRSQTLQLEKAGVEVAKNGAIKVDAYSKTNVDNIYAIGDVTDRVMLTPVAINEGAAFVDTVFANKPRATDHTKVACAVFSIPPMGVCGYVEEDAAKKYDQVAVYESSFTPLMHNISGSTYKKFMVRIVTNHADGEVLGVHMLGDSSPEIIQSVAICLKMGAKISDFYNTIGVHPTSAEELCSMRTPAYFYEKGKRVEKIDSNL | soluble
18 | MNRPHSATGDRPLALVDEHAHAWSPKTARARFRKGLTGPTAGVAAGHTQANLISVPADWAYDMLLFCTRNPQPCPVLDVTDAGSWTTVLADGADLRTDLPRYRVWRDGELVDEPSDVREHWRDDLVTFLIGCSFTFEWALAAAGVPIRHVEQGRNVPMYVTSRACRPAGRLRGPMVVSMRPVPPAHLSAAIHESSLLPAVHGSPVHCGDPSALGIDDLDRPDFGEAVYREPDDIPVFWACGVTPQAAVMASRPPFALTHAPGQMFLTDARDEQYRVALEHHHHHH | soluble
19 | ADILLLDNIDSFTWNLADQLRTNGHNVVIYRNHIPAQTLIDRLATMKNPVLMLSPGPGVPSEAGCMPELLTRLRGKLPIIGICLGHQAIVEAYGGYVGQAGEILHGKATSIEHDGQAMFAGLANPLPVARYHSLVGSNVPAGLTINAHFNGMVMAVRHDADRVCGFQFHPESILTTQGARLLEQTLAWAQQK | soluble
20 | VSAETAARIDAESDSMDWPQEVTLGEVLRERFGDDLVDHVVSALQGGVYSSTSDDLSLRDTVPQLARALDRLKEEGKPVTITAAVQSIMADREKRNKARGYKPSVFAAFPGGYAELYEALAEKSGAKIHIDAFITGIQWKDGFTLKGAEGTFDK | not soluble
